Earlier results in US20220370374A1, “TRANSDERMAL ABSORPTION-TYPE PATCH” (KYUSHU UNIVERSITY, NATIONAL UNIVERSITY CORPORATION, priority 2019, published 2022).
Read-outs that look alike come from different tables or passages of the source.

## C[C@@H](O)[C@@H]1NC(=O)[C@H](CCCCN)NC(=O)[C@@H](Cc2c[nH]c3ccccc23)NC(=O)[C@H](Cc2ccccc2)NC(=O)[C@@H](NC(=O)[C@H](N)Cc2ccccc2)CSSC[C@@H](C(=O)N[C@H](CO)[C@@H](C)O)NC1=O [Octreotide acetate]
In ethanol, acetic acid, or N-methylpyrrolidone
  solubility: freely soluble
In water
  solubility: Extremely soluble

## Leuprorelin
In ethanol
  solubility: slightly insoluble
In methanol
  solubility: soluble
In water or acetic acid
  solubility: freely soluble
